Data as given in PMC7031854.
Each block holds one substance with its values, some of them ahead of it.

Tests used:
[1] = target: GST-tagged lamprey γ-synuclein NTD (lamprey); experiment: pull-down; direct binding: 50-100 μg GST-tagged protein as bait, 100 μg purified recombinant bovine Hsc70 or truncation, without nucleotides; Western blot, band intensity in AU
[2] = target: GST-tagged lamprey γ-synuclein NTD (lamprey); experiment: pull-down; 50-100 μg GST-tagged protein as bait, 1-5 mg rat brain extract in HKET buffer (25 mM HEPES K+, 150 mM KCl, 1 mM EDTA, 1% Triton X-100, pH 7.4); bound proteins detected by Western blot, band intensity in AU
[3] = target: GST-tagged human α-synuclein (full length, wild type) (human) (UniProt P37840); experiment: pull-down; 50-100 μg GST-tagged protein as bait, 1-5 mg lamprey CNS (brain and spinal cord) extract in HKET buffer; bound Hsc70 detected by Western blot, band intensity in AU
[4] = target: GST-tagged human α-synuclein NTD (a.a. 1-102) (human) (UniProt P37840); experiment: as above

band intensity (AU) [1]: 62.8 AU
Substance: His-tagged recombinant bovine Hsc70 (from UniProt P19120 1-650) (natural protein)

band intensity (AU) [2]: 153 AU
Substance: Hsc70 from rat brain extracts (from UniProt P63018 1-646) (natural protein)

band intensity (AU) [3]: 106 AU | band intensity (AU) [4]: 154 AU
Substance: endogenous Hsc70 from lamprey brain and spinal cord extracts (natural protein)
